{"source": "patent US20020165186A1", "about": "“Compounds that affect CD83 expression, pharmaceutical compositions comprising said compounds and methods for identifying said compounds” (priority 2000, published 2002)", "format_in_all_cases": "binding", "key": {"[1]": {"target": "T1, GST-ELAV (HuR) (Homo sapiens, UniProt Q15717)", "T1 construct": "made in house; host or cells: E. coli BL21", "T1 sequence (Q15717 whole entry, the tested form may be a part)": "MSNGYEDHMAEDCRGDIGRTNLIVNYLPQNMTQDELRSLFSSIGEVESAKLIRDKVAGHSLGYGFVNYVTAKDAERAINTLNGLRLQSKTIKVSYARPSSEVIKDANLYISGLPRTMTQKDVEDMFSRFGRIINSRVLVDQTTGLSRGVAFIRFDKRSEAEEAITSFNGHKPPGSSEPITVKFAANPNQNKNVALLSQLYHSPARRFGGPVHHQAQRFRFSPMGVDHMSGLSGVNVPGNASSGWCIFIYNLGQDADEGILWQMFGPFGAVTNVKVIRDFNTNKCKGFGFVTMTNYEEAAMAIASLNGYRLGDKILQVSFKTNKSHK", "assay": "Surface Plasmon Resonance (BIACore X) protein-RNA interaction", "text": "Specific protein-RNA interactions were detected by Surface Plasmon Resonance using the BIACore X optical biosensor (Pharmacia Biosensor AB, Upsala, Sweden).\nThe RNA used contained nucleotides 466 to 615 of SEQ ID NO:1 having a molecular mass of 48,350 gr/mol.\nThe GST-fusion proteins of interest (GST alone or GST-ELAV (HuR)) were immobilized onto the surface of a CM5 Chip (Pharmacia Biosensor AB, Upsala, Sweden) by using the BIACore GST Capture Kit (Pharmacia Biosensor AB, Upsala, Sweden), according to the manufacturers instructions, until a change of at least 1,000 resonance units (RU) was detectable.\n1 μg of in vitro transcribed RNA (using the T7/SP6 Riboprobe Kit, Promega, Mannheim, Germany) was diluted in a total volume of 80 μl HBS-EP buffer (10 mM HEPES, 150 mM NaCl, 3 mM EDTA, 0.005% (v/v) polysorbate 20) and was allowed to flow over the chip at a flow rate of 50μl/minute. The standard running buffer was HBS-EP buffer. The sensor surface was regenerated between assays by injecting 30 μl of 0.5 M NaCl to remove bound analyte.\nDetermination of KD values and calculation of binding specifity were performed using BIAEvaluation Software 3.1 (Pharmacia Biosensor AB, Upsala, Sweden)."}, "[2]": {"target": "T2, GST-ELAV (HuR) fusion protein (Homo sapiens, UniProt Q15717)", "T2 construct": "made in house; host or cells: E. coli BL21", "T2 sequence (Q15717 whole entry, the tested form may be a part)": "as above", "assay": "RNA gel mobility shift of CD83 RNA with GST-ELAV (HuR)", "details": "for HuR binding to sub-fragment domain: FIG. 10", "method": "RNA mobility shift experiments are a very sensitive method for characterizing RNA-protein interactions. For this, the RNA to be examined can be amplified and radioactively labeled with the aid of in vitro transcription from a linear DNA template. The labeling generally occurs with […]. In order to ensure the correct folding of the RNA, this is heated in a water bath to 80° C. and cooled to room temperature. RNA obtained in this manner is then incubated with the desired protein and subsequently analyzed on a native polyacrylamide gel, i.e. under non-denaturing conditions.\nIn order to obtain radioactively labeled RNA for the RNA mobility shift experiments, approximately 20 μg of this vector were linearized with EcoRI and purified on a 0.8% agarose gel. After elution from the gel, the template was extracted with phenol and ethanol precipitated. The resulting DNA was resuspended at a concentration of […] in 20μl nuclease-free water. Radioactively labeled RNA was generated using a Riboprobe In Vitro Transcription System (Promega, Heidelberg, Germany) according to the instructions of the manufacturer using [α-^32P]-UTP. The transcription products were controlled for size and purity by separating 1 μl of the in vitro transcription reaction on a denaturing RNA agarose gel (1.2%), blotting the gel to a nitrocellulose membrane (Amersham-Pharmacia, Freiburg, Germany) for 8 hours and examining the nitrocellulose filter with the aid of photographic film using RNA size standards.\n(§1) RNA mobility shift experiments were then carried out using the radioactively labeled CD83 RNA and the GST-ELAV (HuR) fusion protein as described above. 1 μl of approximately 150-200 ng/ml radioactively labeled CD83 RNA and 1 μl of GST-ELAV (HuR) (protein concentration: 0.3 mg/ml) were used per reaction. Alternatively, GST protein without ELAV sequences was used as a control. The radioactively labeled CD83 RNA was heated to 80° C. in a water bath and cooled to room temperature directly before the reaction. The GST-ELAV (HuR) fusion protein (or GST control protein directly expressed from the vector pGEX-5X-1 was carefully mixed with a binding mixture consisting of 1 μl radioactively labeled CD83 RNA, 1 μl Rnasin® RNAse inhibitor (diluted 5:1 in PBS), 1 μl 10×PBS and 6 μl MS2 RNA or 5S RNA (Roche Diagnostics, Mannheim, Germany) (0.8 μg/μl) and incubated at room temperature for 30 min. 3 μl of 50% glycerin were added to each reaction to ease loading and analysis of the binding between the GST-ELAV (HuR) fusion protein and the CD83 RNA occurred on a 4% or 6% native polyacrylamide gel with a TBE running buffer of pH 8.3.\nAs a control for the specificity of the interaction between HuR and CD83 mRNA, RNA mobility shifts as described in Example 1 were performed using the GST protein as described above, a GST-L5 fusion protein (Schatz et al. (1998) PNAS USA 95: 1607-1612), and a GST- M9 fusion protein comprising the M9 domain of the heterogeneous nuclear ribonucleoprotein hnRNP A1 (Pollard, V. W. et al. (1996) Cell 86: 985-994).\nThe resulting vectors were linearized with EcoRI and radioactively labeled RNA was produced and employed in RNA mobility shift assays as described above."}, "[3]": {"target": "T3, GST protein (Schistosoma japonicum, UniProt P08515)", "T3 construct": "made in house", "T3 sequence (P08515 whole entry)": "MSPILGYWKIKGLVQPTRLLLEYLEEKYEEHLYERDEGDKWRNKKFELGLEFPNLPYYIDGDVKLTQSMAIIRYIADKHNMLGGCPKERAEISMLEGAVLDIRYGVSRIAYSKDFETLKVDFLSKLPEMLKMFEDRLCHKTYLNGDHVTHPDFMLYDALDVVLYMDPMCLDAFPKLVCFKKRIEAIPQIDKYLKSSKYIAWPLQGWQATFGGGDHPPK", "assay": "RNA gel mobility shift of CD83 RNA with GST protein control", "details": "native polyacrylamide gel, FIG. 3", "method": "as §1"}, "[4]": {"target": "T1, GST-ELAV (HuR)", "assay": "RNA gel competition mobility shift with unlabeled CD83 RNA", "details": "increasing amounts of unlabeled RNA, FIG. 5", "method": "For this, the binding mixture as described above was produced with increasing amounts of non-radioactive CD83 RNA and the RNA mobility shift experiments were carried out as described above, except that the binding mixture was incubated with the respective protein for 15 min and then the same amount of radioactively labeled CD83 RNA (1 μl) was subsequently added to each reaction and incubation was continued for a further 15 min."}}, "data": [{"molecule": "CD83 from nucleotides 466 to 615 of SEQ ID NO:1: in vitro transcribed RNA containing nucleotides 466 to 615 of SEQ ID NO:1 (nucleic acid, listed as Homo sapiens, RNA transcript; CDS (1)..(615)) sense: TTAACACTCATCATTTTCACTTGTAAGTTTGCACGGCTACAGAGTATCTTCCCAGATTTTTCTAAAGCTGGCATGGAACGAGCTTTTCTCCCAGTTACCTCCCCAAATAAGCATTTAGGGCTAGTGACTCCTCACAAGACAGAACTGGTA", "values": [{"measurement": "binding of HuR (affinity and specificity in words)", "setting": "[1]", "result": "high affinity and is highly specific"}]}, {"molecule": "CD83 RNA: in vitro transcribed RNA of nucleotides 1 to 618 of SEQ ID NO:1 (human CD83 coding region) (nucleic acid, listed as Homo sapiens, RNA transcript; CDS (1)..(615)) sense: ATGTCGCGCGGCCTCCAGCTTCTGCTCCTGAGCTGCGCCTACAGCCTGGCTCCCGCGACGCCGGAGGTGAAGGTGGCTTGCTCCGAAGATGTGGACTTGCCCTGCACCGCCCCCTGGGATCCGCAGGTTCCCTACACGGTCTCCTGGGTCAAGTTATTGGAGGGTGGTGAAGAGAGGATGGAGACACCCCAGGAAGACCACCTCAGGGGACAGCACTATCATCAGAAGGGGCAAAATGGTTCTTTCGACGCCCCCAATGAAAGGCCCTATTCCCTGAAGATCCGAAACACTACCAGCTGCAACTCGGGGACATACAGGTGCACTCTGCAGGACCCGGATGGGCAGAGAAACCTAAGTGGCAAGGTGATCTTGAGAGTGACAGGATGCCCTGCACAGCGTAAAGAAGAGACTTTTAAGAAATACAGAGCGGAGATTGTCCTGCTGCTGGCTCTGGTTATTTTCTACTTAACACTCATCATTTTCACTTGTAAGTTTGCACGGCTACAGAGTATCTTCCCAGATTTTTCTAAAGCTGGCATGGAACGAGCTTTTCTCCCAGTTACCTCCCCAAATAAGCATTTAGGGCTAGTGACTCCTCACAAGACAGAACTGGTATGA", "values": [{"measurement": "specificity of the shift in mobility (GST, GST-L5, GST-M9, GST-ELAV (HuR))", "setting": "[2]; FIG. 4", "result": "only observed with protein comprising the HuR sequence"}, {"measurement": "mobility shift of the RNA by GST-ELAV (HuR)", "setting": "[2]; native polyacrylamide gel, FIG. 3", "result": "shifted the CD83 RNA to a higher position in the gel"}, {"measurement": "region of HuR binding", "setting": "[2]; sub-fragments nt1-294, nt202-414, nt295-618, FIG. 6", "result": "from nucleotide 415 to nucleotide 618"}, {"measurement": "mobility shift of the RNA by GST protein control", "setting": "[3]", "result": "no shift occurred"}, {"measurement": "competition of labeled CD83 RNA binding by unlabeled RNA", "setting": "[4]", "result": "capable of titrating free GST-ELAV (HuR) protein"}]}, {"molecule": "stem-loop-1: CD83 RNA sub-fragment from nucleotide 295 to nucleotide 465 of SEQ ID NO:1, single stem-loop structure (nucleic acid, listed as Homo sapiens, RNA; CDS (1)..(615)) sense: AGCTGCAACTCGGGGACATACAGGTGCACTCTGCAGGACCCGGATGGGCAGAGAAACCTAAGTGGCAAGGTGATCTTGAGAGTGACAGGATGCCCTGCACAGCGTAAAGAAGAGACTTTTAAGAAATACAGAGCGGAGATTGTCCTGCTGCTGGCTCTGGTTATTTTCTAC", "values": [{"measurement": "HuR binding to sub-fragment domain", "setting": "[2]", "result": "can bind"}]}, {"molecule": "stem-loop-2: CD83 RNA sub-fragment from nucleotide 466 to nucleotide 618 of SEQ ID NO:1, 3-pronged stem-loop structure (nucleic acid, listed as Homo sapiens, RNA; CDS (1)..(615)) sense: TTAACACTCATCATTTTCACTTGTAAGTTTGCACGGCTACAGAGTATCTTCCCAGATTTTTCTAAAGCTGGCATGGAACGAGCTTTTCTCCCAGTTACCTCCCCAAATAAGCATTTAGGGCTAGTGACTCCTCACAAGACAGAACTGGTATGA", "values": [{"measurement": "HuR binding to sub-fragment domain", "setting": "[2]", "result": "can bind"}]}]}
